± gives the standard deviation of the averaged measurements.
B1: library; a variant is named by its letters at N, in order (parent)
chain: AATGTTGTTGATGCAACCATAAAGTGATATTTAATAATTATTTATAATCAGCAACTTAACCACAAAACAACCATATATTGATATNTCACAAAACAACCATAANTTGATATTTTTGTGAATCGAGTATTTCAGCAAAACTACTGCAGTAAGAA

Tests used:
[1] = variants of: B1; assay: relative integration efficiency (T-LR orientation) vs wild-type transposon end (log2 (normalized fold change)); transposon end mutated: left end; higher = more efficient transposition; conditions: with VchCAST RNA-guided transposition machinery (E. coli BL21(DE3) host, lacZ target)
Protocol: (§1)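 Pooled, barcoded VchCAST (Tn6677) mini-transposon donor libraries; each variable transposon-end sequence sits in a fixed pDonor mini-transposon context (10-bp barcode and cargo not included). Left- or right-end libraries were co-transformed with pEffector (TniQ-Cascade, TnsABC, lacZ crRNA, T7, 0.1 mM IPTG) into E. coli BL21(DE3) and grown 18 h at 37 C. T-LR and T-RL junction amplicons were sequenced; output/input barcode fold change was normalised to the mean of four wild-type barcodes and log2-transformed. Two biological replicates; zero-count/undetected variants carry floor values (-10 / -15), censored here. Barcode uncoupling by PCR recombination adds noise.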

[2] = variants of: B1; assay: relative integration efficiency (T-RL orientation) vs wild-type transposon end (log2 (normalized fold change)); transposon end mutated: left end; higher = more efficient transposition; conditions: with VchCAST RNA-guided transposition machinery (E. coli BL21(DE3) host, lacZ target)
Protocol: as §1

Variant | relative integration efficiency (log2) [1] | relative integration efficiency (log2) [2]
TA A70C T76A T86G A102T T111C T113C | -0.561 ± 0.29 | -0.418 ± 0.19
TA A16C G24T T30A T76A T78G C87A A96C T110A T113A | 0.235 ± 1.1 | 0.17 ± 0.13
TA A23G G24T A33T A70C T76A T86G A102T T111C T113C | -0.846 ± 0.11 | -0.375 ± 0.19
TA A22T G24T T31C A33C A70C T76A T86G A102T T111C T113C | -0.793 ± 0.32 | -0.813 ± 0.39
TA A16C G24T T32G A33C T76A T78A T84A C87A A96C T112G T113C | -0.572 ± 0.31 | -0.447 ± 0.34
TA A23G G24T A33T T76A T78A T84A C87A A96C T110A T113A | 0.43 ± 0.2 | 0.182 ± 0.35
TA A23G G24T A33T T76A T78G C87A A96C T110A T113A | 0.938 ± 0.63 | 0.884 ± 0.19
TA A16C G24T T32G A33C T76A T78A T84A C87A T104G T113A | -0.166 ± 0.52 | -0.296 ± 0.42
TA A22T G24T T31C A33C T76A T78A T84A C87A A96C T110A T113A | -0.768 ± 1.2 | -0.365 ± 0.32
TA A22T G24T T31C A33C A70C T76A T84A C87A A102T T111C T113C | -0.102 ± 0.33 | -0.168 ± 0.35
TA A22T G24T T31C A33C A70C T76A T84A C87A A96C T110A T113A | -0.841 ± 0.82 | -0.504 ± 0.43
TA A23G G24T A33T T76A A77G C87T A96C T112G T113C | -0.402 ± 0.62 | -0.2 ± 0.18
CA A22T G24T T31C A33C A102T T111C T113C | -0.528 ± 0.39 | -0.843 ± 0.57
TA A23G G24T A33T A70C T76A T86G T104G T113A | 0.529 ± 0.03 | -0.0666 ± 0.38
TA A23G G24T A33T T76A T78A T84A C87A A96C T112G T113C | -0.309 ± 0.24 | 0.136 ± 0.2
TA A16C G24T T32G A33C A70C T76A T86G A102T T111C T113C | -1.2 ± 0.65 | -0.838 ± 0.29
TA A70C T76A T84A C87A A96C T112G T113C | -0.389 ± 0.085 | -0.122 ± 0.12
TA A23G G24T A33T A70C T76A T86G A96C T112G T113C | -0.361 ± 0.74 | -0.338 ± 0.051
TA A16C G24T T30A T76A T78G C87A T104A T110A T113A | -0.00394 ± 0.69 | -0.0421 ± 0.16
CA A22T G24T T31C A33C T104G T113A | -0.697 ± 0.046 | -0.629 ± 0.23

Variant | relative integration efficiency (log2) [1] | relative integration efficiency (log2) [2]
TA A16C G24T T32G A33C A70C T76A T84A C87A A102T T111C T113C | -1.61 ± 0.92 | -0.84 ± 0.38
CA A102T T111C T113C | 0.118 ± 0.59 | -0.254 ± 0.41
TA A22T G24T T31C A33C A70C T76A T84A C87A T104A T110A T113A | -0.378 ± 0.91 | -0.553 ± 0.35
TA A23G G24T A33T T76A A77G C87T A102T T111C T113C | -0.439 ± 0.39 | -0.836 ± 0.54
TA A22T G24T T31C A33C T76A T78G C87A A102T T111C T113C | -0.662 ± 0.16 | -0.645 ± 0.14
TA A23G G24T A33T T76A T78G C87A T104G T113A | 0.453 ± 0.52 | -0.0355 ± 0.21
CA A23G G24T A33T T104G T113A | 0.0933 ± 0.62 | -0.0946 ± 0.2
TA A22T G24T T31C A33C T76A T78A T84A C87A A102T T111C T113C | -0.838 ± 1.2 | -0.485 ± 0.43
CA A23G G24T A33T T104A T110A T113A | -0.166 ± 0.3 | -0.424 ± 0.22
TA A23G G24T A33T T76A A77G C87T T104A T110A T113A | 0.0613 ± 0.2 | -0.917 ± 0.47
CA A96C T110A T113A | 0.444 ± 0.43 | 0.00902 ± 0.34
CA A16C G24T T32G A33C T104A T110A T113A | -0.927 ± 0.11 | -0.976 ± 0.39
TA A16C G24T T32G A33C T76A T78G C87A A96C T112G T113C | -0.523 ± 0.65 | -0.344 ± 0.18
TA A16C G24T T32G A33C A70C T76A T86G A96C T110A T113A | -0.842 ± 0.018 | -0.63 ± 0.38
TA A70C T76A T86G T104A T110A T113A | 0.0387 ± 0.67 | -0.344 ± 0.23
TA A23G G24T A33T T76A T78G C87A A102T T111C T113C | -0.451 ± 0.41 | -0.227 ± 0.17
CA A96C T112G T113C | -0.564 ± 0.17 | -0.326 ± 0.1
TA A16C G24T T32G A33C A70C T76A T84A C87A T104G T113A | -1.55 ± 1.7 | -0.951 ± 0.57
TA A16C G24T T32G A33C A70C T76A T86G A96C T112G T113C | -1.11 ± 0.096 | -0.726 ± 0.16
TA A16C G24T T30A T76A T78G C87A T104G T113A | -0.0106 ± 0.39 | -0.0789 ± 0.27

Variant | relative integration efficiency (log2) [1] | relative integration efficiency (log2) [2]
TA A16C G24T T32G A33C T76A T78A T84A C87A A102T T111C T113C | -0.59 ± 0.77 | -0.405 ± 0.22
TA A23G G24T A33T A70C T76A T84A C87A A96C T112G T113C | 0.304 ± 0.89 | 0.137 ± 0.19
CA A22T G24T T31C A33C A96C T110A T113A | -0.837 ± 0.2 | -0.802 ± 0.25
TA A16C G24T T30A T76A T78G C87A A102T T111C T113C | -0.495 ± 0.48 | -0.243 ± 0.23
CA A22T G24T T31C A33C A96C T112G T113C | -0.822 ± 0.81 | -0.76 ± 0.32
TA A22T G24T T31C A33C A70C T76A T84A C87A A96C T112G T113C | -0.665 ± 0.33 | -0.334 ± 0.36
CA A22T G24T T31C A33C T104A T110A T113A | -0.859 ± 0.31 | -0.686 ± 0.34
TA A22T G24T T31C A33C A70C T76A T86G A96C T112G T113C | -0.771 ± 0.36 | -0.328 ± 0.2
TA A22T G24T T31C A33C T76A T78A T84A C87A T104A T110A T113A | -0.396 ± 0.056 | -0.175 ± 0.33
TA A16C G24T T32G A33C T76A T78G C87A T104A T110A T113A | -0.325 ± 0.88 | -0.13 ± 0.49
TA A16C G24T T30A T76A T78A T84A C87A A102T T111C T113C | -0.306 ± 1.3 | -0.415 ± 0.32
TA A23G G24T A33T A70C T76A T84A C87A A102T T111C T113C | -0.166 ± 0.29 | 0.133 ± 0.28
CA A16C G24T T32G A33C T104G T113A | -0.783 ± 0.61 | -0.765 ± 0.33
TA A22T G24T T31C A33C T76A T78A T84A C87A T104G T113A | -0.19 ± 0.56 | -0.579 ± 0.53
TA A22T G24T T31C A33C T76A T78A T84A C87A A96C T112G T113C | -0.159 ± 0.75 | -0.261 ± 0.33
CA A16C G24T T32G A33C A96C T112G T113C | -1.27 ± 0.78 | -0.695 ± 0.12
TA A23G G24T A33T A70C T76A T84A C87A T104A T110A T113A | -0.119 ± 0.32 | -0.0493 ± 0.28
TA A16C G24T T32G A33C T76A A77G C87T T104A T110A T113A | -0.782 ± 0.82 | -1.38 ± 0.49
